Test results published in US20110159598A1 (LES LABORATOIRES SERVIER, published 2011).
Each block holds one molecule with its values, some of them ahead of it. No end group written: not given here.

What was measured:
[1] = target: human NEMO mutant A323P, FLAG-tagged (human) (UniProt Q9Y6K9); experiment: cell-based or functional assay
K63 polyubiquitin chains = experiment: cell-based or functional assay
[2] = target: the molecule itself; experiment: gel filtration on Superdex 75, same elution profile as the wild-type CC2-LZ protein
[3] = target: T1, CC2-LZ domain of NEMO (species and construct not stated for this assay) (Mus musculus (Mouse), UniProt O88522 251-337); experiment: fluorescence polarisation, N-terminally Fluorescein- or Cy5-labelled peptide, pH 7, ambient temperature, 20 mM Tris-Acetate-MES, 200 mM KCl, 0.5% Tween 20
T1 construct: not shown: N-terminal histidine tag and vector residues from pET28
Procedure: These measurements are carried out at pH 7 and at ambient temperature in a stringent buffer corresponding to 20 mM Tris-Acetate-MES containing 200 mM potassium chloride and 0.5% Tween 20. They are carried out by fluorescence polarisation with the aid of peptides coupled at the N-terminal with the fluorophores Fluorescein or Cy5. For forming the peptide probes of the invention, the peptides can be coupled to any kind of fluorophore.

X-ray crystal structure = target: the molecule itself; experiment: X-ray crystal structure

- inhibition of TNFα-dependent activation of the NF-κB pathway (Igκ-luciferase reporter in NEMO-deficient mouse embryo fibroblasts) [1]: 95%
Molecule: human NEMO mutant A323P, FLAG-tagged (from UniProt Q9Y6K9 1-419)

- inhibition of TNFα-dependent activation of the NF-κB pathway (Igκ-luciferase reporter in NEMO-deficient mouse embryo fibroblasts) (K63 polyubiquitin chains): 78%
Molecule: human NEMO mutant F312A, FLAG-tagged (from UniProt Q9Y6K9 1-419)

B1: human CC2-LZ domain of NEMO (Tax CC2-LZ, Met 215 to Glu 362) mutant F312A (other)
chain: MERQAASEEKRKLAQLQVAYHQLFQEYDNHIKSSVVGSERKRGMQLEDLKQQLQQAEEALVAKQEVIDKLKEEAEQHKIVMETVPVLKAQADIYKADAQAERQAREKLAEKKELLQEQLEQLQREYSKLKASCQESARIEDMRKRHVE
notes: also called CC2-LZ F312A; not shown: vector-derived tag of pET-28b (protein purified on Ni-NTA)
- binding result [2]: binds

- Kd [3]: 60 nM
B2: peptide P8RD (peptide)
peptide: TVAQLKAQFDIHQAEHQAVKHELEKIEEDFEYIEEQLEQLQREFNKLKSG
modifications: also: N-terminal Fluorescein or Cy5
notes: Peptide probe designed from the crystal structure of the CC2-LZ domain

- Kd [3]: 170 nM
B3: peptide PH4 (peptide)
peptide: TVAQLKAQHDIYEAEHQAVEHELEKLEEELEYIKEELEQLQREFNKLSG
modifications: also: N-terminal Fluorescein or Cy5
notes: as for B2

B4: CC2-LZ domain of murine NEMO (aa 251-337), N-terminal histidine tag (other)
chain: MQLEDLRQQLQQAEEALVAKQELIDKLKEEAEQHKIVMETVPVLKAQADIYKADFQAERHAREKLVEKKEYLQEQLEQLQREFNKLK
notes: Expressed in E. coli BL21-gold (DE3); Forms a parallel coiled-coil dimer in the crystal; also called CC2-LZ protein; Nemo CC2LZ; not shown: N-terminal histidine tag from plasmid pET28
- binding result (X-ray crystal structure): binds
